US20180193413A1 (UNIVERSITY OF BRITISH COLUMBIA, published 2018)
Residue numbers refer to the chain shown, from its start. Names and notes keep the numbering of the source. Bridges are numbered along the chain shown (N, C = ends). Where no end group is shown, it is not given here.

T1: Human pancreatic α-amylase (human, UniProt P04746 16-511)
T1 construct: Recombinant, secreted from Pichia pastoris, purified and deglycosylated; also called HPA; human pancreatic alpha amylase
T1 sequence: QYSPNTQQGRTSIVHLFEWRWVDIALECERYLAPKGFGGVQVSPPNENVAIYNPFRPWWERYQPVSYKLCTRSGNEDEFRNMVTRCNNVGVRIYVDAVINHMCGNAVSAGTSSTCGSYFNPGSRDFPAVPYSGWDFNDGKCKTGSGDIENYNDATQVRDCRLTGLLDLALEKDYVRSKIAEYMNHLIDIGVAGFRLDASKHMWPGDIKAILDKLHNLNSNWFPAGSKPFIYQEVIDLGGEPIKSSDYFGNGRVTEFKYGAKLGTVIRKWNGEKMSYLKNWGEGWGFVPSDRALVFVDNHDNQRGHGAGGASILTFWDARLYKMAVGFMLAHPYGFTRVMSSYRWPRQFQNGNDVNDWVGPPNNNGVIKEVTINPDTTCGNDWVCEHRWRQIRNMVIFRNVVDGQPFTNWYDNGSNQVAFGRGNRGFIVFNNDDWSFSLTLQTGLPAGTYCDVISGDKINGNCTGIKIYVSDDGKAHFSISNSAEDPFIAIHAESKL

T2: Porcine pancreatic α-amylase (porcine, UniProt P00690 16-511)
T2 construct: Bought enzyme; also called PPA
T2 sequence: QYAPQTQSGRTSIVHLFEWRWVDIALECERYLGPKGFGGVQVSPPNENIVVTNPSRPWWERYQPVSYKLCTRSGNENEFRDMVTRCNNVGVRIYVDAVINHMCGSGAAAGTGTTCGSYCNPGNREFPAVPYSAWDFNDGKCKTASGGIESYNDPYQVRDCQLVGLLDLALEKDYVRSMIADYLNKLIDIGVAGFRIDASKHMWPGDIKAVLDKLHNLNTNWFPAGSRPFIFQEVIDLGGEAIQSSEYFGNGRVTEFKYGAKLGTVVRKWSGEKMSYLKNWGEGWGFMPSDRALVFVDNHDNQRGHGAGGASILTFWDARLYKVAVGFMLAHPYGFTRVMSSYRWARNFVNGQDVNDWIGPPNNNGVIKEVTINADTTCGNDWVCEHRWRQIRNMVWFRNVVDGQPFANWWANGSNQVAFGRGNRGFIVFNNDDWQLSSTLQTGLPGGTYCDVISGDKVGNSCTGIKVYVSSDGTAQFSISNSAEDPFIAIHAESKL

T3: T163R HPA mutant (human, UniProt P04746 16-511)
T3 construct: it may be shifted against the precursor entry
T3 sequence: T1 sequence with T163R

B1: Helianthamide (peptide)
peptide: ESGNSCYIYHGVSGICKASCAEDEKAMAGMGVCEGHLCCYKTPW
modifications: disulfide 16-33, 20-39, 6-38
notes: 44-residue peptide with three disulfide bonds in a 1-5, 2-4, 3-6 pattern (C6-C38, C16-C33, C20-C39); crystal structure with PPA; also called recombinant Helianthamide; synthetic Helianthamide
B2: bar′-Helianthamide fusion (other)
chain: B1 peptide
modifications: not fully specified (N-terminus); ends and bridges not checked
notes: Uncleaved fusion secreted from E. coli BL21*(DE3), purified on nickel; The text says that the junction is a TEV site; also called barnase′-helianthamide
B3: Bar′-Y7A (other)
chain: B1 peptide with Y7A
modifications: not fully specified (N-terminus); ends and bridges not checked
notes: Tested as uncleaved fusion; also called Y7A mutant of Helianthamide in bar′-Helianthamide fusion form
B4: Bar′-H10A (other)
chain: B1 peptide with H10A
modifications: not fully specified (N-terminus); ends and bridges not checked
notes: Tested as uncleaved fusion; also called H10A mutant of Helianthamide in bar′-Helianthamide fusion form
B5: Bar′-Y9A (other)
chain: B1 peptide with Y9A
modifications: not fully specified (N-terminus); ends and bridges not checked
notes: Tested as uncleaved fusion; also called Y9A mutant of Helianthamide in bar′-Helianthamide fusion form

Experiments:
[1] = target: T1, Human pancreatic α-amylase; assay: enzyme kinetics (CNP-G3 hydrolysis), Morrison tight-binding fit, competitive inhibition; recombinant helianthamide
[2] = target: T2, Porcine pancreatic α-amylase; assay: enzyme kinetics, inhibition of glycosidase activity
[3] = target: T3, T163R HPA mutant; assay: enzyme kinetics, Ki against T163R HPA compared with HPA
[4] = target: T3, T163R HPA mutant; assay: enzyme kinetics (CNP-G3 hydrolysis), uncleaved bar′ fusion
[5] = target: T1, Human pancreatic α-amylase; assay: as above
[6] = target: T1, Human pancreatic α-amylase; assay: enzyme kinetics, Ki of bar′ fusion mutants against HPA

Row | Binder | Ki [1] [nM] | Ki [2] [nM] | fold decrease in potency (against wild-type HPA) [3] [fold] | Ki [4] [nM] | Ki [5] [nM] | fold decrease in potency (against the bar′-Helianthamide fusion) [6] [fold]
1 | B1 | 0.01 | 0.1 |  |  |  | 
2 | B2 |  |  | 20 | 20 | 0.9 | 
3 | B3 |  |  |  | 107 | 5 | 
4 | B4 |  |  |  | 321 | 15 | 
5 | B5 |  |  |  | 960 | 47 | 50
